Among the data in patent publication US12180280 (dated 2024) are Kd values, retold here.

Substitutions are numbered along the chain they refer to.

T1: human CD3 epsilon (human, UniProt P07766)
T1 chain: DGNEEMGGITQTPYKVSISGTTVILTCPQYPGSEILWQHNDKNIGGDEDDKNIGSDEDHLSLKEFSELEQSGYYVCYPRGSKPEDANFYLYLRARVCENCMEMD

T2: monkey CD3 epsilon (cynomolgus monkey, UniProt Q95LI5)
T2 chain: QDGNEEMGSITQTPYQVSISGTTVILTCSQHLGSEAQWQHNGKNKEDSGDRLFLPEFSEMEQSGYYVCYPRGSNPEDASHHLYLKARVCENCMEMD

B1: 15H2L3 (antibody, V domains shown)
VH: EVQLLESGGGLVQPGGSLRLSCAASGFTFNTYAMNWVRQAPGKGLEWVARIRSKYNNYATYYAISVKDRFTISRDNSKNTLYLQMNSLRAEDTAVYYCVKHGNFGNSYLSYWAYWGQGTLVTVSS
VL: QAVVTQEPSLTVSPGGTVTLTCQSSTGAVTTNNYANWVQQKPGHAFRGLIGGTKQRAPGVPARFSGSLLGGKAALTLSGVQPEDEAEYYCVLWYSNLWVFGGGTKLTVL
B2: 15H2L2 (antibody, V domains shown)
VH: B1 VH
VL: B1 VL with A2T, H44Q, F46P, G48A, V60T
B3: 26H3L3 (antibody, V domains shown)
VH: B1 VH with I64D, N76D, V95M, K100R, L109I, Y111W
VL: B1 VL with Q23K, N32S, K54N, Q55L, R56H, V91A
B4: 15H3L2 (antibody, V domains shown)
VH: B1 VH with N76D, V95M, K100R
VL: B1 VL with A2T, H44Q, F46P, G48A, V60T
B5: 26H2L3 (antibody, V domains shown)
VH: B1 VH with I64D, L109I, Y111W
VL: B1 VL with Q23K, N32S, K54N, Q55L, R56H, V91A
B6: 15H3L3 (antibody, V domains shown)
VH: B1 VH with N76D, V95M, K100R
VL: B1 VL
B7: 19-37 (antibody, V domains shown)
VH: EVKLLESGGGLVQPKGSLKLSCAASGFTFNTYAMNWVRQAPGKGLEWVARIRSKYNNYATYYAISVKDRFTISRDDSQSILYLQMNNLKTEDTAMYYCVRHGNFGNSYISYWAYWGQGTLVTVSA
VL: QAVVTQESALTTSPGETVTLTCRSSTGAVTTNNYANWVQEKPDHLFTGLIGGTRLSAPGVPARFSGSLIGDKAALTITGAQTEDEAIYFCVLWYSNLWVFGGGTKLTVL
B8: CD3-19 (antibody, V domains shown)
VH: B7 VH with T31S, I64D, I109L
VL: B7 VL with R23D, N32S, R54Q, L55R
B9: 19-15 (antibody, V domains shown)
VH: B7 VH with I109L
VL: B7 VL with R23Q, R54K, L55Q, S56R
B10: 19-26 (antibody, V domains shown)
VH: B7 VH with I64D, Y111W
VL: B7 VL with R23K, N32S, R54N, S56H, V91A
B11: CD20-TCB (CD3 arm) (antibody)
chain 1: not shown
chain 2: QVQLVQSGAEVKKPGSSVKVSCKASGYAFSYSWINWVRQAPGQGLEWMGRIFPGDGDTDYNGKFKGRVTITADKSTSTAYMELSSLRSEDTAVYYCARNVFDGYWLVYWGQGTLVTVSSASTKGPSVFPLAPSSKSTSGGTAALGCLVEDYFPEPVTVSWNSGALTSGVHTFPAVLQSSGLYSLSSVVTVPSSSLGTQTYICNVNHKPSNTKVDEKVEPKSCDKTHTCPPCPAPEAAGGPSVFLFPPKPKDTLMISRTPEVTCVVVDVSHEDPEVKFNWYVDGVEVHNAKTKPREEQYNSTYRVVSVLTVLHQDWLNGKEYKCKVSNKALGAPIEKTISKAKGQPREPQVCTLPPSRDELTKNQVSLSCAVKGFYPSDIAVEWESNGQPENNYKTTPPVLDSDGSFFLVSKLTVDKSRWQQGNVFSCSVMHEALHNHYTQKSLSLSP
chain 3: EVQLLESGGGLVQPGGSLRLSCAASGFTFSTYAMNWVRQAPGKGLEWVSRIRSKYNNYATYYADSVKGRFTISRDDSKNTLYLQMNSLRAEDTAVYYCVRHGNFGNSYVSWFAYWGQGTLVTVSSASVAAPSVFIFPPSDEQLKSGTASVVCLLNNFYPREAKVQWKVDNALQSGNSQESVTEQDSKDSTYSLSSTLTLSKADYEKHKVYACEVTHQGLSSPVTKSFNRGEC
chain 4: DIVMTQTPLSLPVTPGEPASISCRSSKSLLHSNGITYLYWYLQKPGQSPQLLIYQMSNLVSGVPDRFSGSGSGTDFTLKISRVEAEDVGVYYCAQNLELPYTFGGGTKVEIKRTVAAPSVFIFPPSDRKLKSGTASVVCLLNNFYPREAKVQWKVDNALQSGNSQESVTEQDSKDSTYSLSSTLTLSKADYEKHKVYACEVTHQGLSSPVTKSFNRGEC
B12: MBS303-2 (CD3 arm) (antibody, V domains shown)
VH: B1 VH with N76D, V95M, K100R
VL: B1 VL
B13: MBS303-1 (CD3 arm) (antibody, V domains shown)
VH: B1 VH
VL: B1 VL

One test has as its target T1, human CD3 epsilon. Put plainly: SPR. In general terms: Surface plasmon resonance follows binding to a sensor surface in real time, without labels.
Broadly, the Kd is the constant that tells how readily two partners part at equilibrium. Regarding B1, the Kd is 0.104 nM.
B2 yielded a Kd of 0.516 nM.
Same read-out and setting: under B3 stands 0.864 nM.
The same measure, in the same setting: next, B4: 0.205 nM; B5: 3.95 nM.
On the same count and under the same terms, next, B6: 0.0967 nM.

For the next test, the target named is T1, human CD3 epsilon. Nature of the test: SPR. The source holds these as a separate data set.
B7: the dissociation constant (Kd) came out at 0.00628 nM.
On the same count and under the same terms, next, B8: 0.222 nM; B9: 0.143 nM; B10: 0.184 nM.

In the next test the target is T2, monkey CD3 epsilon. Nature of the test: SPR.
B7: the Kd was 0.00379 nM.
The molecule B8 displayed a dissociation constant Kd of 0.347 nM.
On the same count and under the same terms, next, B9: 0.232 nM; B10: 0.237 nM.

In a further test the target is T2, monkey CD3 epsilon. Nature of the test: SPR. This is another data set of the same source.
As for B1, binding was characterised by a dissociation constant (Kd) of 0.777 nM.
B2: the Kd came out at 5.84 nM.
Still for that read-out and setting: next, B3: 0.192 nM.
Still for that read-out and setting: next, B4: 0.591 nM.
B5: binding was characterised by a dissociation constant (Kd) of 2.27 nM.
Still for that read-out and setting: next, B6: 0.616 nM.

Another test concerns the target T1, human CD3 epsilon. Nature of the test: SPR. The source holds these as a separate data set.
In turn, B11 showed a Kd of 5.6 nM.
The molecule B12 had a Kd of 1.79 nM.
The molecule B13 returned a Kd of 1.99 nM.
